Data from the RNAGym collection of RNA variant scans (doi:10.7554/elife.80360).

B1: HDV Ribozyme (parent)
chain: GGCCGGCAUGGUCCCAGCCUCCUCGCUGGCGCCGGCUGGGCAACAUUCCGAGGGGACCGUCCCCUCGGUAAUGGCGAAUGGGACCCA

Variants of: B1
Assay: self-cleavage, relative activity (ratio to wild type); higher = more cleavage; co-transcriptional

Going from C30G G38C to C30A A70C, the self-cleavage rises from 0.0594 to 0.491.

Going from C30A A70G to G29U C63A, the self-cleavage falls from 0.332 to 0.106.

First: G29U C63G
Second: G29C C44A
The self-cleavage of the first is lower: 0.0386 for the first, 0.0554 for the second.

First: G29U C57A
Second: G29U C57G
The self-cleavage of the first is lower: 0.151 for the first, 0.198 for the second.

First: G29U G52C
Second: G29U G59C
The self-cleavage of the first is lower: 0.0268 for the first, 0.104 for the second.

Going from G29U G59U to C30G U65A, the self-cleavage falls from 0.147 to 0.032.

Going from C30A U79C to C30G C57G, the self-cleavage falls from 0.216 to 0.208.

Compared with C30G C57A, C30G C58A is lower in self-cleavage: 0.138 for the first, 0.0386 for the second.

Going from C30G C58U to C30G C58G, the self-cleavage falls from 0.0906 to 0.0804.

Compared with G29U G53C, C30A A42U is higher in self-cleavage: 0.125 for the first, 0.241 for the second.

Compared with C30A A42C, G29U G34U is lower in self-cleavage: 0.14 for the first, 0.0519 for the second.

First: G29U G34A
Second: G29C G35A
The self-cleavage of the first is higher: 0.111 for the first, 0.104 for the second.

First: G29U C48G
Second: G29U C48A
The self-cleavage of the first is lower: 0.106 for the first, 0.117 for the second.

Compared with G29U G81A, G29U C75G is lower in self-cleavage: 0.12 for the first, 0.116 for the second.

First: G29U C75A
Second: G29U C75U
The self-cleavage of the first is lower: 0.0639 for the first, 0.0767 for the second.

Going from C30G A83C to C30G A43U, the self-cleavage rises from 0.0489 to 0.194.

Compared with C30A A77U, C30G G31U is higher in self-cleavage: 0.0354 for the first, 0.126 for the second.

Going from C30G G31C to G29U G74C, the self-cleavage rises from 0.104 to 0.137.

Compared with G29C C41A, G29C C41G is higher in self-cleavage: 0 for the first, 0.229 for the second.

Going from G29C C41U to C30A G81A, the self-cleavage rises from 0.0297 to 0.111.

First: C30A G81U
Second: C30G A71C
The self-cleavage of the first is higher: 0.134 for the first, 0.0554 for the second.

Compared with C30G A71U, G29U C32U is lower in self-cleavage: 0.0875 for the first, 0.0665 for the second.

Going from G29U C32A to G29C G50U, the self-cleavage falls from 0.135 to 0.

Compared with G29C C63A, G29C C63U is lower in self-cleavage: 0.117 for the first, 0 for the second.

Going from G29C C63G to G29U C64G, the self-cleavage rises from 0.0489 to 0.0739.

Compared with G29U C64U, G29U C64A is lower in self-cleavage: 0.211 for the first, 0.0665 for the second.

First: C30G G67C
Second: G29U U60C
The self-cleavage of the first is higher: 0.0528 for the first, 0 for the second.

Going from G29U C61U to C30A G54C, the self-cleavage rises from 0.122 to 0.519.

Going from C30A G54A to C30A G54U, the self-cleavage falls from 0.535 to 0.5.

First: G29U U79C
Second: G29U U79G
The self-cleavage of the first is higher: 0.122 for the first, 0.0386 for the second.

Going from C30A G68A to C30A G68U, the self-cleavage rises from 0.411 to 0.569.

Compared with C30G G81U, C30G G81A is lower in self-cleavage: 0.158 for the first, 0.0978 for the second.

Going from C30A C85G to C30A C85U, the self-cleavage rises from 0.509 to 0.554.

First: C30A C85A
Second: C30G G39U
The self-cleavage of the first is higher: 0.295 for the first, 0.0692 for the second.

First: C30G G39A
Second: G29U G38U
The self-cleavage of the first is lower: 0.0608 for the first, 0.141 for the second.

Going from G29U U65C to G29U U65G, the self-cleavage falls from 0.173 to 0.0755.

Going from C30G A42U to C30A C64G, the self-cleavage rises from 0 to 0.485.

Going from G29C G38A to C30G A56G, the self-cleavage rises from 0 to 0.0941.

First: C30G A56U
Second: C30G G55C
The self-cleavage of the first is higher: 0.116 for the first, 0.111 for the second.

First: G29C G31A
Second: C30A A51U
The self-cleavage of the first is lower: 0.0875 for the first, 0.735 for the second.

Compared with C30A A51C, C30A G59A is lower in self-cleavage: 0.612 for the first, 0.561 for the second.

Compared with G29C G59C, G29C G34C is higher in self-cleavage: 0.123 for the first, 0.125 for the second.

Compared with G29C G34U, G29C G34A is lower in self-cleavage: 0.181 for the first, 0 for the second.

Compared with G29C C84U, G29C C84G is higher in self-cleavage: 0.032 for the first, 0.208 for the second.

Going from G29C C84A to C30A G55C, the self-cleavage rises from 0.0831 to 0.653.

Going from C30G A70C to G29U C36G, the self-cleavage rises from 0.106 to 0.201.

G29U C36A and G29U C36U are the same in self-cleavage: 0.187 for the first, 0.187 for the second.

First: G29C A83C
Second: G29C G80C
The self-cleavage of the first is higher: 0.142 for the first, 0.0308 for the second.

First: C30A C66U
Second: C30G G50U
The self-cleavage of the first is higher: 0.421 for the first, 0.0978 for the second.

Compared with C30G G50A, G29U A87U is higher in self-cleavage: 0.0733 for the first, 0.111 for the second.

Compared with C30G A87G, C30G A87U is higher in self-cleavage: 0.0702 for the first, 0.14 for the second.

Compared with G29U A83C, G29U A83G is lower in self-cleavage: 0.0692 for the first, 0.0329 for the second.

Compared with C30G U47G, C30A C41A is higher in self-cleavage: 0.0678 for the first, 0.429 for the second.

First: C30G G73U
Second: C30A C61A
The self-cleavage of the first is lower: 0.0845 for the first, 0.428 for the second.

Compared with C30G G68A, C30G G68U is lower in self-cleavage: 0.126 for the first, 0.0228 for the second.

Compared with C30G C86U, G29C A77C is higher in self-cleavage: 0.0332 for the first, 0.0639 for the second.

First: G29C G52C
Second: C30G C49G
The self-cleavage of the first is higher: 0.208 for the first, 0.203 for the second.

Going from C30G C49U to C30G C49A, the self-cleavage rises from 0.0511 to 0.116.

Going from C30A A43G to C30A A43C, the self-cleavage falls from 0.0739 to 0.0326.

Compared with C30A C32A, G29U C41A is higher in self-cleavage: 0.0627 for the first, 0.0755 for the second.

Compared with G29U A71G, G29U A71C is lower in self-cleavage: 0.162 for the first, 0.0302 for the second.

Compared with C30A C58G, C30A U37A is lower in self-cleavage: 0.596 for the first, 0 for the second.

First: C30G A77C
Second: C30G A77G
The self-cleavage of the first is lower: 0.095 for the first, 0.189 for the second.

First: G29C A78U
Second: G29C C58A
The self-cleavage of the first is higher: 0.0773 for the first, 0.0755 for the second.

First: G29C G68C
Second: C30A C44G
The self-cleavage of the first is lower: 0.0449 for the first, 0.0831 for the second.

First: C30A C44A
Second: G29U U46C
The self-cleavage of the first is higher: 0.208 for the first, 0 for the second.

Going from G29U A78C to C30G G59A, the self-cleavage rises from 0 to 0.0692.

First: C30G G82U
Second: C30G A51G
The self-cleavage of the first is higher: 0.0627 for the first, 0 for the second.

Going from C30G A51U to C30A C48U, the self-cleavage rises from 0.0297 to 0.533.

Going from G29U G40A to G29U G40C, the self-cleavage falls from 0.0955 to 0.0583.

Compared with C30A G73A, C30A G73C is lower in self-cleavage: 0.237 for the first, 0.119 for the second.

First: G29U C86G
Second: G29U C86A
The self-cleavage of the first is lower: 0.0346 for the first, 0.169 for the second.

Going from C30G A78C to C30G A78U, the self-cleavage falls from 0.0744 to 0.0678.

Compared with C30G A78G, G29C C30U is lower in self-cleavage: 0.0923 for the first, 0.0415 for the second.

Compared with G29C C30G, G29U A45G is higher in self-cleavage: 0 for the first, 0.0923 for the second.

First: G29U A45C
Second: C30A C57G
The self-cleavage of the first is lower: 0.113 for the first, 0.284 for the second.

Compared with C30A C57A, C30A C57U is lower in self-cleavage: 0.688 for the first, 0.587 for the second.

First: G29U C33G
Second: G29U C33A
The self-cleavage of the first is lower: 0.0369 for the first, 0.0519 for the second.

First: G29C U46C
Second: G29U A70U
The self-cleavage of the first is lower: 0.0755 for the first, 0.0923 for the second.

Going from G29U A70G to G29U A70C, the self-cleavage rises from 0.0396 to 0.0791.

Going from C30A C49G to C30A C49U, the self-cleavage rises from 0.232 to 0.615.

Compared with C30G G40C, C30G G40U is lower in self-cleavage: 0.106 for the first, 0.0514 for the second.

First: G29U G55U
Second: G29U G55A
The self-cleavage of the first is lower: 0.0944 for the first, 0.122 for the second.

With G29U G55C the self-cleavage was 0.0692.
